Measured values as given in PMC12509757.
Numbering of substitutions follows the chain as printed. Names may count otherwise. Blank lines part the entries; values can stand above or below the binder they belong to.

Tests used:
[1] = target: microtubules of HEK293T cells (microtubule fraction), P68363;P07437; test: tubulin/microtubule fractionation of HEK293T lysates (immunoblot); conditions: chain shown with the change;
[2] = target: microtubules of osteoclasts (polymerized from endogenous tubulin) (mouse (endogenous in RAW264.7-derived osteoclasts)) (UniProt P05213); test: co-sedimentation; tubulin/microtubule fractionation of Arhgap10 KO #28 osteoclasts expressing doxycycline-induced myc-ARHGAP10 constructs; immunoblot (Fig. S2)
[3] = target: microtubules polymerized from pig brain tubulin (pig) (UniProt P02550); test: co-sedimentation; in vitro; recombinant His GST protein (1 μM in the legends, 2 μM in the methods) with increasing concentrations of microtubules from pig brain tubulin (or BSA instead) in 1X BRB80, 1 mM DTT, 20 μM paclitaxel, 5 min at room temperature; 100,000g, 15 min, 30 °C through 40% glycerol; immunoblot of supernatant and pellet; apparent Kd, one site-specific binding fit

Sequence of microtubules of HEK293T cells (microtubule fraction), P68363;P07437 (chain, as listed by the source, chain 1 of 2): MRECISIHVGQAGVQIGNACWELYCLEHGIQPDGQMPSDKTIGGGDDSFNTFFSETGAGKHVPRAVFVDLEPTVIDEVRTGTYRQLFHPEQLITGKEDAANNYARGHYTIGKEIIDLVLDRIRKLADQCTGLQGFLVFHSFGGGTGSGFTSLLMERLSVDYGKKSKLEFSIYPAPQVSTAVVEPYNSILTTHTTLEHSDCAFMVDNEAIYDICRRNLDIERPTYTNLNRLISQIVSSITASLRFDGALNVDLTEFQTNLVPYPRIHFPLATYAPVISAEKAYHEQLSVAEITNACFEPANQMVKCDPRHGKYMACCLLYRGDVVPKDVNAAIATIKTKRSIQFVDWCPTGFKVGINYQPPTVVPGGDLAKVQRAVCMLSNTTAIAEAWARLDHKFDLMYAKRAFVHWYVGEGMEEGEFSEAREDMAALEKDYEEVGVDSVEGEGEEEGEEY
Sequence of microtubules of HEK293T cells (microtubule fraction), P68363;P07437 (chain, as listed by the source, chain 2 of 2): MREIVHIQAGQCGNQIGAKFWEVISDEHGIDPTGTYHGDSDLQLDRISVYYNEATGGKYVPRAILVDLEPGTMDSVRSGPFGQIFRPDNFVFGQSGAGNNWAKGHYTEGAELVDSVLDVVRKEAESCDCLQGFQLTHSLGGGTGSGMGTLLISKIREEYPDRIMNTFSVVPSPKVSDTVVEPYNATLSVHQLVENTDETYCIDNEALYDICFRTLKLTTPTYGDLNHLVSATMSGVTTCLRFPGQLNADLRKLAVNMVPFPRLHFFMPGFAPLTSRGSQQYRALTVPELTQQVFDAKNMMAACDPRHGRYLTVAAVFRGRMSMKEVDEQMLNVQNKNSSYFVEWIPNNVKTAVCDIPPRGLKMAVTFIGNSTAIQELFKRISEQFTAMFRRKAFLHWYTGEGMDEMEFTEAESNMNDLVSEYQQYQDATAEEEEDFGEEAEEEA
Sequence of microtubules of osteoclasts (polymerized from endogenous tubulin) (mouse (endogenous in RAW264.7-derived osteoclasts)) (P05213 whole entry, chain 1 of 2): as the sequence (chain, as listed by the source, chain 1 of 2) above
Sequence of microtubules of osteoclasts (polymerized from endogenous tubulin) (mouse (endogenous in RAW264.7-derived osteoclasts)) (P99024 whole entry, chain 2 of 2, further chain): as the sequence (chain, as listed by the source, chain 2 of 2) above

- response ([1]; parent: 59.1): 26 % in MT
B1: myc-tagged full-length human ARHGAP10, WT (HEK293T), A1A4S6 K37E; K41E; K44E (protein)
chain: MGLQPLEFSDCYLDSPWFRERIRAHEAELERTNKFIEELIEDGENLIAATKSLSVAQRKFAHSLRDFKFEFIGDAVTDDERCIDASLREFSNFLKNLEEQREIMALSVTETLIKPLEKFRKEQLGAVKEEKKKFDKETEKNYSLIDKHLNLSAKKKDSHLQEADIQVEQNRQHFYELSLEYVCKLQEIQERKKFEFVEPMLSFFQGMFTFYHQGHELAKDFNHYKMELQINIQNTRNRFEGTRSEVEELMNKIRQNPKDHKRASQFTAEGYLYVQEKRPAPFGSSWVKHYCMYRKAAKKFNMIPFEHRSGGKLGDGEVFFLKECTKRHTDSIDRRFCFDIEAADRPGVSLTMQAFSEEERKQWLEALGGKEALSHSFNTAIIPRPEGNAQLDKMGFTIIRKCISAVETRGINDQGLYRVVGVSSKVQRLLSMLMDVKTCNEVDLENSADWEVKTITSALKQYLRSLPEPLMTYELHGDFIVPAKSGSPESRVNAIHFLVHKLPEKNKEMLDILVKHLTNVSNHSKQNLMTVANLGVVFGPTLMRPQEETVAALMDLKFQNIVVEILIENHEKIFRTPPDTTFPEPTCLSASPPNAPPRQSKRQGQRTKRPVAVYNLCLELEDGDNPYPSKEDTPTSSLDSLSSPSPVTTAVPGPPGPDKNHLLADGGSFGDWASTIPGQTRSSMVQWLNPQSPTTTSSNSAVTPLSPGSSPFPFSPPATVADKPPESIRSRKARAVYPCEAEHSSELSFEIGAIFEDVQTSREPGWLEGTLNGKRGLIPQNYVKLL

- percent associated with the microtubule-containing fraction [2]: 50%
B2: myc-tagged full-length ARHGAP10, WT, re-expressed in Arhgap10 KO osteoclasts (natural protein)
chain: B1 chain with E37K, E41K, E44K

- response ([1]; parent: 60): 32.7 % in MT
B3: myc-tagged BAR-PH (aa 1-388) of ARHGAP10, WT, A1A4S6 K37E; K41E; K44E (protein)
chain: MGLQPLEFSDCYLDSPWFRERIRAHEAELERTNKFIEELIEDGENLIAATKSLSVAQRKFAHSLRDFKFEFIGDAVTDDERCIDASLREFSNFLKNLEEQREIMALSVTETLIKPLEKFRKEQLGAVKEEKKKFDKETEKNYSLIDKHLNLSAKKKDSHLQEADIQVEQNRQHFYELSLEYVCKLQEIQERKKFEFVEPMLSFFQGMFTFYHQGHELAKDFNHYKMELQINIQNTRNRFEGTRSEVEELMNKIRQNPKDHKRASQFTAEGYLYVQEKRPAPFGSSWVKHYCMYRKAAKKFNMIPFEHRSGGKLGDGEVFFLKECTKRHTDSIDRRFCFDIEAADRPGVSLTMQAFSEEERKQWLEALGGKEALSHSFNTAIIPRPEGN

- Kd [3]: 1270 nM
B4: His GST BAR-PH (aa 1-388) of ARHGAP10, WT (domain or fragment)
chain: B3 chain with E37K, E41K, E44K
